From the RNAGym collection of RNA variant scans (doi:10.7554/elife.80360)

B1: Hairpin Ribozyme (parent)
chain: GUCCUCUUUCACGUGCGCGUGAAAGAGAGAAGUGAACCAGAGAAACACACGUUGUGGUAUAUUACCUGGUA

Variants of: B1
Assay: self-cleavage, relative activity (ratio to wild type); higher = more cleavage; co-transcriptional

| Variant | self-cleavage |
| --- | --- |
| GUCCUCUUUCACGUGCGCGUGAAAGAGAGAAGUGGACCAGAGAAAAACACGUUGUGGUAUAUUACCUGGUA | 0.125 |
| GUCCUCUUUCACGUGCGCGUGAAAGAGAGAAGUGCACCAGAGAAACACACGUUGUGGUAUAUGACCUGGUA | 0.286 |
| GUCCUCUUUCACGUGCGCGUGAAAGAGAGAAGUGUACCAGAGAAACACACGUUGUGGUAUGUUACCUGGUA | 0.137 |
| GUCCUCUUUCACGUGCGCGUGAAAGAGAGAAGUGGACCAGAGAAACACACGGUGUGGUAUAUUACCUGGUA | 0.97 |
| GUCCUCUUUCACGUGCGCGUGAAAGAGAGAAGUGCACCAGAGAAACACACGUUGUGGUAUACUACCUGGUA | 0.103 |
| GUCCUCUUUCACGUGCGCGUGAAAGAGAGAAGUGCACCAGAGAAACACACGUUGUGGUAUAAUACCUGGUA | 0.226 |
| GUCCUCUUUCACGUGCGCGUGAAAGAGAGAAGUGCACCAGAGAAACACACGUUGUGGUAUAGUACCUGGUA | 0.172 |
| GUCCUCUUUCACGUGCGCGUGAAAGAGAGAAGUGCACCAGAGAAACACACGUUGUGAUAUAUUACCUGGUA | 0.0715 |
| GUCCUCUUUCACGUGCGCGUGAAAGAGAGAAGUGCACCAGAGAAACACACGUUGUGGUAUAUUACCUUGUA | 0.226 |
| GUCCUCUUUCACGUGCGCGUGAAAGAGAGAAGUGGACCAGAGAAACACACGUUGUGGUAUAGUACCUGGUA | 0.139 |
| GUCCUCUUUCACGUGCGCGUGAAAGAGAGAAGUGGACCAGAGAAACACACGUUGUGGUAUGUUACCUGGUA | 0.185 |
| GUCCUCUUUCACGUGCGCGUGAAAGAGAGAAGUGGACAAGAGAAACACACGUUGUGGUAUAUUACCUGGUA | 0.162 |
| GUCCUCUUUCACGUGCGCGUGAAAGAGAGAAGUGGACCAGAGAAACACACGUUGUGGUAUAUUAACUGGUA | 0.867 |
| GUCCUCUUUCACGUGCGCGUGAAAGAGAGAAGUGCACCAGAGAAACAGACGUUGUGGUAUAUUACCUGGUA | 0.131 |
| GUCCUCUUUCACGUGCGCGUGAAAGAGAGAAGUGGACCAGAGAAACACACGUUGUGGUAUAUUCCCUGGUA | 0.174 |
| GUCCUCUUUCACGUGCGCGUGAAAGAGAGAAGUGCACCAGAAAAACACACGUUGUGGUAUAUUACCUGGUA | 0.129 |
| GUCCUCUUUCACGUGCGCGUGAAAGAGAGAAGUGCACCAGAUAAACACACGUUGUGGUAUAUUACCUGGUA | 0.342 |
| GUCCUCUUUCACGUGCGCGUGAAAGAGAGAAGUGCACCAGAGAGACACACGUUGUGGUAUAUUACCUGGUA | 0.0678 |
| GUCCUCUUUCACGUGCGCGUGAAAGAGAGAAGUGCACCAGAGAAACACACGUUGUGGUAGAUUACCUGGUA | 0.649 |
| GUCCUCUUUCACGUGCGCGUGAAAGAGAGAAGUGCACCAGAGAAACACACGUUGUGGUAAAUUACCUGGUA | 0.664 |
| GUCCUCUUUCACGUGCGCGUGAAAGAGAGAAGUGCACCAGAGAAACACACGUUGUGGUACAUUACCUGGUA | 1.14 |
| GUCCUCUUUCACGUGCGCGUGAAAGAGAGAAGUGCACCAGAGAAACACACGUUGUGGUAUAUUACCUGUUA | 0.189 |
| GUCCUCUUUCACGUGCGCGUGAAAGAGAGAAGUGGACCAGAGAAACACACGUUGUGGUAUAUUACCUGGUA | 0.931 |
| GUCCUCUUUCACGUGCGCGUGAAAGAGAGAAGUGUACCAGAGAAACACACGUUGUGGUAUAUUACCUGGUA | 0.811 |
| GUCCUCUUUCACGUGCGCGUGAAAGAGAGAAGUGCACCAGAGAAACACACGUUGUGGUAUAUUACCUGGUA | 1.02 |
| GUCCUCUUUCACGUGCGCGUGAAAGAGAGAAGUGCACCAGAGAAACACACCUUGUGGUAUAUUACCUGGUA | 0.725 |

| Variant | self-cleavage |
| --- | --- |
| GUCCUCUUUCACGUGCGCGUGAAAGAGAGAAGUGUACCAGAGAAACACUCGUUGUGGUAUAUUACCUGGUA | 0.155 |
| GUCCUCUUUCACGUGCGCGUGAAAGAGAGAAGUGUACCAGAGUAACACACGUUGUGGUAUAUUACCUGGUA | 0.0408 |
| GUCCUCUUUCACGUGCGCGUGAAAGAGAGAAGUGUACCUGAGAAACACACGUUGUGGUAUAUUACCUGGUA | 0.391 |
| GUCCUCUUUCACGUGCGCGUGAAAGAGAGAAGUGUACCGGAGAAACACACGUUGUGGUAUAUUACCUGGUA | 0.433 |
| GUCCUCUUUCACGUGCGCGUGAAAGAGAGAAGUGCACCAUAGAAACACACGUUGUGGUAUAUUACCUGGUA | 0.149 |
| GUCCUCUUUCACGUGCGCGUGAAAGAGAGAAGUGUCCCAGAGAAACACACGUUGUGGUAUAUUACCUGGUA | 0.264 |
| GUCCUCUUUCACGUGCGCGUGAAAGAGAGAAGUGUGCCAGAGAAACACACGUUGUGGUAUAUUACCUGGUA | 0.901 |
| GUCCUCUUUCACGUGCGCGUGAAAGAGAGAAGUGCACCAGAGAAACACACGUUGUGGCAUAUUACCUGGUA | 0.798 |
| GUCCUCUUUCACGUGCGCGUGAAAGAGAGAAGUGGACCAGAGAAACACACCUUGUGGUAUAUUACCUGGUA | 0.689 |
| GUCCUCUUUCACGUGCGCGUGAAAGAGAGAAGUGCACCAGAGAAACACACGUUGUGGUAUAUUACCGGGUA | 0.278 |
| GUCCUCUUUCACGUGCGCGUGAAAGAGAGAAGUGUACCAGAGAUACACACGUUGUGGUAUAUUACCUGGUA | 0.0832 |
| GUCCUCUUUCACGUGCGCGUGAAAGAGAGAAGUGUACCAGAGACACACACGUUGUGGUAUAUUACCUGGUA | 0.267 |
| GUCCUCUUUCACGUGCGCGUGAAAGAGAGAAGUGCACCAGAGAAACACACGUUGUGGUAUAUUUCCUGGUA | 0.192 |
| GUCCUCUUUCACGUGCGCGUGAAAGAGAGAAGUGGACCAGAGAAACACACGUUGUGGCAUAUUACCUGGUA | 1.11 |
| GUCCUCUUUCACGUGCGCGUGAAAGAGAGAAGUGCACCAGAGAAACACACGUUGUGGUAUAUUAACUGGUA | 1.08 |
| GUCCUCUUUCACGUGCGCGUGAAAGAGAGAAGUGGACCAGAGAAACAAACGUUGUGGUAUAUUACCUGGUA | 0.198 |
| GUCCUCUUUCACGUGCGCGUGAAAGAGAGAAGUGGACCAGAGAAACACACGUAGUGGUAUAUUACCUGGUA | 1.25 |
| GUCCUCUUUCACGUGCGCGUGAAAGAGAGAAGUGGACCAGAGAAACACACGUUGCGGUAUAUUACCUGGUA | 0.3 |
| GUCCUCUUUCACGUGCGCGUGAAAGAGAGAAGUGUACCAGCGAAACACACGUUGUGGUAUAUUACCUGGUA | 0.957 |
| GUCCUCUUUCACGUGCGCGUGAAAGAGAGAAGUGUACCAGGGAAACACACGUUGUGGUAUAUUACCUGGUA | 0.599 |
| GUCCUCUUUCACGUGCGCGUGAAAGAGAGAAGUGGACCAGAGAAACACACGUUGUGGUAUAUAACCUGGUA | 0.232 |
| GUCCUCUUUCACGUGCGCGUGAAAGAGAGAAGUGGACCAGAGAAACACACGUUGUGGUAUAUCACCUGGUA | 0.233 |
| GUCCUCUUUCACGUGCGCGUGAAAGAGAGAAGUGGACCAGAGAAACACACGUUGUGGUAUAUGACCUGGUA | 0.221 |
| GUCCUCUUUCACGUGCGCGUGAAAGAGAGAAGUGUACCAGAGAAACCCACGUUGUGGUAUAUUACCUGGUA | 0.258 |
| GUCCUCUUUCACGUGCGCGUGAAAGAGAGAAGUGGACCGGAGAAACACACGUUGUGGUAUAUUACCUGGUA | 0.348 |
| GUCCUCUUUCACGUGCGCGUGAAAGAGAGAAGUGUACCAGAGAAACACACGUUGUGGUUUAUUACCUGGUA | 0.117 |

| Variant | self-cleavage |
| --- | --- |
| GUCCUCUUUCACGUGCGCGUGAAAGAGAGAAGUGGACCAGAGAAACACACGUUGUGGUAUAUUACCUCGUA | 0.236 |
| GUCCUCUUUCACGUGCGCGUGAAAGAGAGAAGUGCACCAGAGAAAAACACGUUGUGGUAUAUUACCUGGUA | 0.0748 |
| GUCCUCUUUCACGUGCGCGUGAAAGAGAGAAGUGGACCAGAGAAACACGCGUUGUGGUAUAUUACCUGGUA | 0.433 |
| GUCCUCUUUCACGUGCGCGUGAAAGAGAGAAGUGGACCAGAGAAACACCCGUUGUGGUAUAUUACCUGGUA | 0.12 |
| GUCCUCUUUCACGUGCGCGUGAAAGAGAGAAGUGCACCAGAGAAACACACGUUGGGGUAUAUUACCUGGUA | 0.27 |
| GUCCUCUUUCACGUGCGCGUGAAAGAGAGAAGUGCACCAGAGAAACACACGUUGAGGUAUAUUACCUGGUA | 0.177 |
| GUCCUCUUUCACGUGCGCGUGAAAGAGAGAAGUGCACCAGAGAAACACACGUUGUGGUAUAUUACCUGGUG | 0.422 |
| GUCCUCUUUCACGUGCGCGUGAAAGAGAGAAGUGCACCAGAGAAACACACGUUUUGGUAUAUUACCUGGUA | 0.56 |
| GUCCUCUUUCACGUGCGCGUGAAAGAGAGAAGUGCACCAGAGAAACACACGUUAUGGUAUAUUACCUGGUA | 0.483 |
| GUCCUCUUUCACGUGCGCGUGAAAGAGAGAAGUGGACCAGAGAAACACACGUUGUGGUAUAUUACCUGGUG | 0.542 |
| GUCCUCUUUCACGUGCGCGUGAAAGAGAGAAGUGGACCAGAGAAACACACGUUGUGGUAUAUUACCUGGUC | 1.16 |
| GUCCUCUUUCACGUGCGCGUGAAAGAGAGAAGUGGACCAGAGAAACACACGUUGUGGUAGAUUACCUGGUA | 0.443 |
| GUCCUCUUUCACGUGCGCGUGAAAGAGAGAAGUGUACCAGAGAACCACACGUUGUGGUAUAUUACCUGGUA | 0.112 |
| GUCCUCUUUCACGUGCGCGUGAAAGAGAGAAGUGUACCAGAGAAGCACACGUUGUGGUAUAUUACCUGGUA | 0.0965 |
| GUCCUCUUUCACGUGCGCGUGAAAGAGAGAAGUGCACCAGAGAAACACACGUUGUGGUAUAUUACCUGGCA | 1.01 |
| GUCCUCUUUCACGUGCGCGUGAAAGAGAGAAGUGCACCAGAGAAACACAUGUUGUGGUAUAUUACCUGGUA | 0.438 |
| GUCCUCUUUCACGUGCGCGUGAAAGAGAGAAGUGCACCAGAGAAACACAGGUUGUGGUAUAUUACCUGGUA | 0.37 |
| GUCCUCUUUCACGUGCGCGUGAAAGAGAGAAGUGCACCAGAGAAACACACGUUGUGGUGUAUUACCUGGUA | 0.124 |
| GUCCUCUUUCACGUGCGCGUGAAAGAGAGAAGUGCACCAGAGAAACACACGUUGUGGUUUAUUACCUGGUA | 0.105 |
| GUCCUCUUUCACGUGCGCGUGAAAGAGAGAAGUGGACCAGAGAAACACACGUUGUGCUAUAUUACCUGGUA | 0.268 |
| GUCCUCUUUCACGUGCGCGUGAAAGAGAGAAGUGCACCAGAGCAACACACGUUGUGGUAUAUUACCUGGUA | 0.0885 |
| GUCCUCUUUCACGUGCGCGUGAAAGAGAGAAGUGGACCAGAGCAACACACGUUGUGGUAUAUUACCUGGUA | 0.118 |
| GUCCUCUUUCACGUGCGCGUGAAAGAGAGAAGUGGACCAGAGAAACACACGUUCUGGUAUAUUACCUGGUA | 0.444 |
| GUCCUCUUUCACGUGCGCGUGAAAGAGAGAAGUGCACCAGAGAAACACACGUUGUGGUAUAUUACUUGGUA | 0.558 |
